Entries after “also recorded” stand apart in the source; their conditions may differ. Like-named read-outs stand apart in the source and are kept apart here.
What was measured:
[1] = target: chick E12 dorsal root ganglion neurons; experiment: AP-Nogo binding to chick dorsal root ganglion neurons
Description: (a) is a photograph of a gel and an immunoblot where the His-AP-Nogo (66 amino acid) protein was expressed in HEK293T cells, and purified from conditioned medium on a Nickel-containing resin via the His tag. Purified protein was subjected to SDS-PAGE and stained for total protein with CBB or immunoblotted with anti-Nogo antibodies (anti-Nogo). Molecular weight markers of 200, 116, 97, 65 and 45 kDa are shown at left, and the migration of AP-Nogo at right. (b) is a photograph of dissociated chick E12 dorsal root ganglion neurons that were incubated with 10 nM AP-Nogo or 10 nM AP-Nogo+160 nM GST-Nogo for sixty minutes at 23° C. The cells were washed, fixed and incubated at 60° C. in order to inactivate endogenous AP. Bound AP-Nogo was detected by incubation with nitro blue tetrazolium. Note the intense neuronal staining by AP-Nogo that is displaced by unlabeled ligand. (c) is a graph displaying experimental data where the potency of AP-Nogo and GST-Nogo in E12 chick dorsal root ganglion growth cone collapse assays was assessed as described in the Example section. The EC50 of AP-Nogo was determined to be 1 nM or less. The means±s.e.m. calculated from five to eight determinations are illustrated. (d) is a graph displaying experimental data where the binding of 10 nM AP-Nogo to chick E12 dorsal root ganglion neurons was assessed alone, or in the presence of 100 nM GST-Nogo or in the presence of 4 μM Pep2, which was quantified from experiments as in (b) by the method described in the Example section. The means±s.e.m. calculated from eight determinations are shown. (e) is a graph displaying experimental data where AP-Nogo binding to dorsal root ganglion neurons was measured as a function of AP-Nogo concentration. This is one of six experiments with similar results. (f) is a graph summarizing the data from (e) replotted for Scatchard analysis. The apparent Kd for AP-Nogo binding to E12 chick dorsal root ganglion neurons is 3 nM. […]

[2] = system: GST-Nogo-induced growth cone collapse; experiment: Blockade of Nogo-induced growth cone collapse in chick DRG cultures; assay type: cell-based; conditions: GST-Nogo / Nogo-66 as collapsing agent
Experimental: (§1) For all experiments involving cell culture, the following methods were employed. The culture of embryonic chick E10 and E12 dorsal root ganglion explants and dissociated neurons utilized methods described for E7 dorsal root ganglion cultures (Takahashi et al., (1998) Nature Neurosci. 1, 487-493; Takahashi et al., (1999) Cell 99, 59-69; Goshima et al., (1995) Nature 376, 509-514; Jin & Strittmatter, (1997) J. Neurosci. […]). NGF-differentiated PC12 cells were cultured as described (Strittmatter et al., (1994) J. Neurosci. 14, 2327-2338). Embryonic spinal cord explants (rat E10 or chick E5) were cultured for 7-14 days in the presence of PDGF-AA to induce differentiation of some cells into mature oligodendrocytes (Vartanian et al., (1999) Proc. Natl. Acad. Sci. USA 96, 731-735). The procedure for growth cone collapse assays is identical to that for analysis of Sema3A-induced growth cone collapse (Takahashi et al., (1998) Nature Neurosci. 1, 487-493; Takahashi et al., (1999) Cell 99, 59-69; Goshima et al., (1995) Nature 376, 509-514; Jin & Strittmatter, (1997) J. Neurosci. 17, 6256-6263). The method for analysis of total neurite outgrowth has also been described (Goshima et al., (1995) Nature 376, 509-514; Jin & Strittmatter, (1997) J. Neurosci. 17, 6256-6263; Strittmatter et al., (1994) J. Neurosci. 14, 2327-2338). In outgrowth assays, proteins and peptides were added one hour after plating to minimize any effect on the total number of adherent cells. To test the effect of substrate-bound GST or GST-Nogo, the protein solutions were dried on poly-L-lysine coated glass, washed and then coated with laminin. For E12 cultures, the neuronal identity of cells was verified by staining with anti-neurofilament antibodies (2H3, Develomental Studies Hybridoma Bank) and neurites were traced by observation of rhodamine-phalloidin staining of F-actin in processes.
In the growth cone collapse assay, the response to Nogo was measured in the presence of various potential antagonistic peptides. […] This blockade supports the hypothesis that Nogo is a primary inhibitory component of CNS myelin.
For further testing, a synthetic peptide containing amino acid residues #1055-1094 of hNgR, acetylated at the […] was used [hereinafter “Peptide 140”]. […] Antagonist of Nogo-66 inhibitory activity may act by competing for, and thereby blocking NgR binding sites. To determine the antagonistic activity of Peptide 140, the above synthetic form of the peptide was added to E12 chick DRG explant cultures approximately 10 min before application of various concentrations of GST-NogoA (residues #1055-1120), TPA or Sema3A. 30 min later, cultures were fixed and growth cone collapse was assessed following staining with rhodamine-phalloidin.

[3] = system: chick E12 dorsal root ganglion growth cones; experiment: Growth cone collapse assay in chick dorsal root ganglion explants; assay type: cell-based
Experimental: as §1
The expression of recombinant Nogo in HEK293T cells allows a rigorous test of whether this protein has axon outgrowth inhibiting effects. Washed membrane fractions from vector- or hNogo-A-Myc-transfected HEK293T cells were added to chick E12 dorsal root ganglion explant cultures. Growth cone morphology was assessed after a thirty minute incubation at 37° C. by fixation and rhodamine-phalloidin staining.
Briefly, for growth cone collapse, DRG explants were plated on plastic chamber slides precoated with 100 μg ml^−1 poly-L-lysine and 10 μg ml^−1 laminin. Cultures were grown 14-16 h prior to treatment.

Question: How did the Ki ([1]; binding of 10 nM AP-Nogo, read-out: apparent Ki in the binding assay) turn out when “Pep2-41: 2-41 fragment of the 66 amino acid region of Nogo, acetylated and amidated at the termini (Ac-RIYKGVIQAIQKSDEGHPFRAYLESEVAISEELVQKYSNS-NH2)” was run?
Answer: 150 nM

Question: And the “blockade of Nogo-induced growth cone collapse (in words)” value [2]?
Answer: abolishes GST-Nogo-induced growth cone collapse

Question: Which results are given for “Peptide 140: synthetic peptide of amino acids #1055-1094 of the human NogoA protein, acetylated and amidated at the termini (Ac-RIYKGVIQAIQKSDEGHPFRAYLESEVAISEELVQKYSNS-NH2; UniProt Q9NQC3 1055-1094, looked up, fragment)”?
Answer: growth cone collapse activity (in words) ([3]; added to DRG explant cultures, thirty minutes): does not induce significant growth cone collapse; blockade of Nogo-induced growth cone collapse (in words) [2]: significantly blocks growth cone collapse

B1: NgR-ecto: secreted fragment of amino acid residues 1-348 of the murine NgR, in HEK293T conditioned medium (protein)
chain: CPGACVCYNEPKVTTSCPQQGLQAVPTGIPASSQRIFLHGNRISHVPAASFQSCRNLTILWLHSNALARIDAAAFTGLTLLEQLDLSDNAQLHVVDPTTFHGLGHLHTLHLDRCGLRELGPGLFRGLAALQYLYLQDNNLQALPDNTFRDLGNLTHLFLHGNRIPSVPEHAFRGLHSLDRLLLHQNHVARVHPHAFRDLGRLMTLYLFANNLSMLPAEVLMPLRSLQYLRLNDNPWVCDCRARPLWAWLQKFRGSSSEVPCNLPQRLADRDLKRLAASDLEGCAVASGPFRPIQTSQLTDEELLSLPKCCQPDAADKASVLE
modifications: left off: small tags and cut ends
notes: secreted fragment of amino acid residues 1-348 of the murine NgR, in HEK293T conditioned medium
Question: How did the “reduction of binding of AP-Nogo-66” value ([1]; 0.5 nM AP-Nogo-66, NgR-ecto conditioned medium, dorsal root ganglion neurons) turn out when B1 was run?
Answer: 80%

Question: And the “blockade of Nogo-induced growth cone collapse (in words)” value [2]?
Answer: prevents Nogo-66-induced growth cone collapse

Question: And the “blockade of Nogo-induced growth cone collapse (in words)” value ([2]; listed as NgR ectodomain protein)?
Answer: blocked

Question: And the “blockade of Nogo-induced growth cone collapse (in words)” value ([2]; listed as mNgR ectodomain protein)?
Answer: blocked

B2: AP-Nogo: fusion protein of His6 tag, placental alkaline phosphatase (AP) and the 66 amino acid active domain of Nogo (protein)
chain: HHHHHHIIPVEEENPDFWNREAAEALGAAKKLQPAQTAAKNLIIFLGDGMGVSTVTAARILKGQKKDKLGPEIPLAMDRFPYVALSKTYNVDKHVPDSGATATAYLCGVKGNFQTIGLSAAARFNQCNTTRGNEVISVMNRAKKAGKSVGVVTTTRVQHASPAGTYAHTVNRNWYSDADVPASARQEGCQDIATQLISNMDIDVILGGGRKYMFRMGTPDPEYPDDYSQGGTRLDGKNLVQEWLAKRQGARYVWNRTELMQASLDPSVTHLMGLFEPGDMKYEIHRDSTLDPSLMEMTEAALRLLSRNPRGFFLFVEGGRIDHGHHESRAYRALTETIMFDDAIERAGQLTSEEDTLSLVTADHSHVFSFGGYPLRGSSIFGLAPGKARDRKAYTVLLYGNGPGYVLKDGARPDVTESESGSPEYRQQSAVPLDEETHAGEDVAVFARGPQAHLVHGVQEQTFIAHVMAFAACLEPYTACDLAPPAGTTDAAHPGRIYKGVIQAIQKSDEGHPFRAYLESEVAISEELVQKYSNSALGHVNCTIKELRRLFLVDDLVDSLK
Question: How did the “relative potency in growth cone collapse (comparator in the words)” value (“relative potency in growth cone collapse” below) [3] turn out when B2 was run?
Answer: slightly more potent than GST-Nogo

Question: What about the “growth cone collapse (in words)” value ([3]; conditioned medium, AP-fusion protein final concentration 20 nM, E12 chick DRG) of the same molecule?
Answer: potent growth-cone-collapsing agent

B3: GST-Nogo: GST fusion protein of the 66 amino acid lumenal-extracellular fragment of Nogo-A, expressed in E. coli (protein)
chain: RIYKGVIQAIQKSDEGHPFRAYLESEVAISEELVQKYSNSALGHVNCTIKELRRLFLVDDLVDSLK
modifications: also: GST fusion protein
notes: GST fusion protein of the 66 amino acid lumenal-extracellular fragment of Nogo-A, expressed in E. coli
Question: Which “blockade of AP-Nogo binding (in words)” value [1] does the source give for B3 here?
Answer: blocked; also recorded: displaced

Question: And the “relative potency in growth cone collapse” value [3]?
Answer: even more potent than the urea-extracted protein

Question: And the “relative potency in growth cone collapse” value ([3]; listed as GST-Nogo-66)?
Answer: two orders of magnitude more potent than Amino-Nogo

Question: What about the “concentration acutely altering growth cone morphology (as low as)” value ([3]; soluble GST-Nogo purified on glutathione-Sepharose resin) of the same molecule?
Answer: 1 nM

Question: What about the “growth cone morphology (in words)” value ([3]; soluble form at 100 nM, chick E12 DRG) of the same molecule?
Answer: collapses chick E12 dorsal root ganglion growth cones

Question: What about the EC50 ([3]; urea-extracted GST-Nogo, chick E12 dorsal root ganglion neurons, read-out: EC50 growth cone collapsing activity) of the same molecule?
Answer: 50 nM
